Source: patent US20150203577A1 (Chugai, published 2015)
Where a chain is given by its changes, count along the chain named. “And” between values parts separate entries of the source, which are not always exact repeats. Equal values may be shown once.

T1: mouse FcγRII (mouse, UniProt P08101 30-210)
T1 construct: Extracellular domain with C-terminal His tag, made in FreeStyle 293 cells; also called mFcγRII; mFcgRII
T1 sequence: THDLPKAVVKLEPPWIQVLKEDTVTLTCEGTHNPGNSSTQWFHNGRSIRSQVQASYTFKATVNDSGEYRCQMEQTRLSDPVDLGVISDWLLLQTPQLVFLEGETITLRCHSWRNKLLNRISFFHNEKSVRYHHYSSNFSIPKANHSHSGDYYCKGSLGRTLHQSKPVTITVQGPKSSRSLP

T2: mouse FcγRIII (mouse, UniProt P08508 31-215)
T2 construct: Extracellular domain with C-terminal His tag, made in FreeStyle 293 cells; also called mFcγRIII; mFcgRIII
T2 chain: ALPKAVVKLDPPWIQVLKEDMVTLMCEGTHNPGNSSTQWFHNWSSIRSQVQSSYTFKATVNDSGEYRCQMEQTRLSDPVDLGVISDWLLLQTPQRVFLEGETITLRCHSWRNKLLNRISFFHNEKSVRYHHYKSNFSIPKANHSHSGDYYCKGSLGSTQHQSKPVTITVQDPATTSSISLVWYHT

T3: mouse FcγRIII extracellular domain, C-terminally His-tagged (mouse, UniProt P08508 31-215)
T3 construct: the whole entry is named; also called mFcγRIII; mFcgRIII
T3 chain: T2 chain

T4: mouse FcγRII extracellular domain, C-terminally His-tagged (mouse, UniProt P08101 30-210)
T4 construct: the whole entry is named; also called mFcγRII; mFcgRII
T4 sequence: T1 sequence

T5: mouse FcγRIII extracellular domain, C-terminal His tag (mouse, UniProt P08508 31-215)
T5 construct: Whole entry named; also called mFcγRIII; mFcgRIII
T5 chain: T2 chain

T6: mouse FcγRII extracellular domain, C-terminal His tag (mouse, UniProt P08101 30-210)
T6 construct: Whole entry named; also called mFcγRII; mFcgRII
T6 sequence: T1 sequence

B1: H237-MB645/MRAL-k0 (antibody, mouse IgG1, kappa)
heavy: QVQLQESGPGLVKPSETLSLTCAVSGHSISHDHAWSWVRQPPGEGLEWIGFISYSGITNYNPSLQGRVTISRDNSKNTLYLQMNSLRAEDTAVYYCARSLARTTAMDYWGEGTLVTVSSAKTTPPSVYPLAPGSAAQTNSMVTLGCLVKGYFPEPVTVTWNSGSLSSGVHTFPAVLQSDLYTLSSSVTVPSSTWPSETVTCNVAHPASSTKVDKKIVPRDCGCKPCICEVYEVEYVFIFPPKPKDVLTITLTPKVTCVVVDISKDDPEVQFSWFVDDVEVHTAQTQPREEQFNSTFRSVSELPIMHQDWLNGKEFKCRVNSAAFPAPIEKTISKTKGRPKAPQVYTIPPPKEQMAKDKVSLTCMITDFFPEDITVEWQWNGQPAENYKNTQPIMDTDGSYFVYSKLNVQKSNWEAGNTFTCSVLHEGLHNHHTEKSLSHSPGK
light: not shown
notes: copies: 2 + 2
B2: H237-MB594/MRAL-k0 (antibody, mouse IgG1, kappa)
heavy: B1 heavy with Y231P, V233E, Y235S
light: not shown
notes: copies: 2 + 2
B3: H237-MB623/MRAL-k0 (antibody, mouse IgG1, kappa)
heavy: B1 heavy with V230A, Y235L
light: not shown
notes: copies: 2 + 2
B4: H237-MB624/MRAL-k0 (antibody, mouse IgG1, kappa)
heavy: B1 heavy with V230D, Y235L
light: not shown
notes: copies: 2 + 2
B5: H237-MB625/MRAL-k0 (antibody, mouse IgG1, kappa)
heavy: B1 heavy with V230N, Y235L
light: not shown
notes: copies: 2 + 2
B6: H237-MB626/MRAL-k0 (antibody, mouse IgG1, kappa)
heavy: B1 heavy with V230T, Y235L
light: not shown
notes: copies: 2 + 2
B7: H237-MB617/MRAL-k0 (antibody, mouse IgG1, kappa)
heavy: B1 heavy with E229T, Y231P, V233E, E234S, Y235D, F237D
light: not shown
notes: copies: 2 + 2
B8: H237-MB609/MRAL-k0 (antibody, mouse IgG1, kappa)
heavy: B1 heavy with E229T, Y231P, Y235E, S263M
light: not shown
notes: copies: 2 + 2
B9: H237-MB622/MRAL-k0 (antibody, mouse IgG1, kappa)
heavy: B1 heavy with E229T, Y231P, E234D, Y235D
light: not shown
notes: copies: 2 + 2
B10: H237-MB681/MRAL-k0 (antibody)
heavy: B1 heavy with V230P, Y231K, Y235D
light: not shown
notes: copies: 2 + 2
B11: H237-MB607/MRAL-k0 (antibody, mouse IgG1, kappa)
heavy: B1 heavy with E229T, Y231P, V233E, Y235E
light: not shown
notes: copies: 2 + 2
B12: H237-MB676/MRAL-k0 (antibody)
heavy: B1 heavy with V230P, Y231N, Y235K
light: not shown
notes: copies: 2 + 2
B13: H237-MB620/MRAL-k0 (antibody, mouse IgG1, kappa)
heavy: B1 heavy with E229T, Y231P, E234D, Y235D, S263M
light: not shown
notes: copies: 2 + 2
B14: H237-MB612/MRAL-k0 (antibody, mouse IgG1, kappa)
heavy: B1 heavy with E229T, Y231P, E234D, Y235E, F237D
light: not shown
notes: copies: 2 + 2
B15: H237-MB680/MRAL-k0 (antibody)
heavy: B1 heavy with V230N, Y231K, Y235D
light: not shown
notes: copies: 2 + 2
B16: H237-MB603/MRAL-k0 (antibody, mouse IgG1, kappa)
heavy: B1 heavy with Y231P, E234D, Y235F
light: not shown
notes: copies: 2 + 2
B17: H237-MB605/MRAL-k0 (antibody, mouse IgG1, kappa)
heavy: B1 heavy with Y231P, E234D, Y235S, F237D
light: not shown
notes: copies: 2 + 2
B18: H237-MB608/MRAL-k0 (antibody, mouse IgG1, kappa)
heavy: B1 heavy with E229T, Y231P, Y235E, F237D
light: not shown
notes: copies: 2 + 2
B19: H237-MB604/MRAL-k0 (antibody, mouse IgG1, kappa)
heavy: B1 heavy with Y231P, E234D, Y235W
light: not shown
notes: copies: 2 + 2
B20: H237-MB684/MRAL-k0 (antibody)
heavy: B1 heavy with E229Q, V230P, Y231K, Y235D
light: not shown
notes: copies: 2 + 2
B21: H237-MB679/MRAL-k0 (antibody)
heavy: B1 heavy with V230D, Y231K, Y235D
light: not shown
notes: copies: 2 + 2
B22: H237-MB621/MRAL-k0 (antibody, mouse IgG1, kappa)
heavy: B1 heavy with E229T, Y231P, E234D, Y235E
light: not shown
notes: copies: 2 + 2
B23: H237-MB611/MRAL-k0 (antibody, mouse IgG1, kappa)
heavy: B1 heavy with E229T, Y231P, V233E, E234D, Y235E
light: not shown
notes: copies: 2 + 2
B24: H237-MB616/MRAL-k0 (antibody, mouse IgG1, kappa)
heavy: B1 heavy with E229T, Y231P, Y235D, S263M
light: not shown
notes: copies: 2 + 2
B25: H237-MB615/MRAL-k0 (antibody, mouse IgG1, kappa)
heavy: B1 heavy with E229T, Y231P, Y235D, F237D
light: not shown
notes: copies: 2 + 2
B26: H237-MB613/MRAL-k0 (antibody, mouse IgG1, kappa)
heavy: B1 heavy with E229T, Y231P, E234D, Y235E, S263M
light: not shown
notes: copies: 2 + 2
B27: H237-MB619/MRAL-k0 (antibody, mouse IgG1, kappa)
heavy: B1 heavy with E229T, Y231P, E234D, Y235D, F237D
light: not shown
notes: copies: 2 + 2
B28: H237-MB614/MRAL-k0 (antibody, mouse IgG1, kappa)
heavy: B1 heavy with E229T, Y231P, V233E, Y235D
light: not shown
notes: copies: 2 + 2
B29: H237-MB683/MRAL-k0 (antibody)
heavy: B1 heavy with V230T, Y231K, Y235D
light: not shown
notes: copies: 2 + 2
B30: H237-MB682/MRAL-k0 (antibody)
heavy: B1 heavy with V230P, Y231K, Y235D
light: not shown
notes: copies: 2 + 2
B31: H237-MB602/MRAL-k0 (antibody, mouse IgG1, kappa)
heavy: B1 heavy with Y231P, V233E, E234D, Y235S
light: not shown
notes: copies: 2 + 2
B32: H237-MB618/MRAL-k0 (antibody, mouse IgG1, kappa)
heavy: B1 heavy with E229T, Y231P, V233E, E234D, Y235D
light: not shown
notes: copies: 2 + 2
B33: H237-MB678/MRAL-k0 (antibody)
heavy: B1 heavy with Y231K, Y235D
light: not shown
notes: copies: 2 + 2

target: T1, mouse FcγRII; test: SPR (Biacore), antibody captured on Protein L
Method: (§1) Each altered antibody was analyzed for its interaction with each Fcγ receptor prepared above using Biacore T100 (GE Healthcare Japan Corp.), Biacore T200 (GE Healthcare Japan Corp.), Biacore A100, or Biacore 4000. The running buffer used was HBS-EP+ (GE Healthcare Japan Corp.). The assay temperature was set to 25° C. The sensor chips used were chips prepared by immobilizing Protein L (ACTIGEN or BioVision) onto Series S Sensor Chip CM5 (GE Healthcare Japan Corp.) or Series S Sensor Chip CM4 (GE Healthcare Japan Corp.) by the amine coupling method.
(§2) In order to calculate the KD value of each altered antibody for FcγR, kinetic analysis was conducted according to the following method: first, the antibody of interest was captured onto any of these chips and allowed to interact with mFcγR diluted with a running buffer. For the obtained sensorgram, the assay results were globally fit into the 1:1 Langmuir binding model using Biacore Evaluation Software to calculate an association rate constant ka (L/mol/s) and a dissociation rate constant kd (1/s). From these values, the dissociation constant KD (mol/L) was calculated.

Row | Kd | Binder
1 | 180 nM and 307 nM | B1
2 | 115 nM and 250 nM | B2

Target: T2, mouse FcγRIII
Test: SPR (Biacore), antibody captured on Protein L
Method: as §1, §2

Row | Kd | Binder
3 | 1420 nM and 2360 nM | B1
4 | 3230 nM and 9030 nM | B2

Target: T3, mouse FcγRIII extracellular domain, …
Test: SPR Biacore T200, KD ratio
Method: as §1, §2

Row | relative mFcγRIII-binding activity (mIgG1 = 1) [fold] | Binder
5 | 0.09 | B3
6 | 0.1 | B4
7 | 0.12 | B5
8 | 0.12 | B6

target: T4, mouse FcγRII extracellular domain, …; test: SPR Biacore T200, KD ratio
Method: as §1, §2

Row | relative mFcγRII-binding activity (mIgG1 = 1) [fold] | Binder
9 | 0.53 | B3
10 | 0.8 | B4
11 | 0.67 | B5
12 | 0.81 | B6

Target: T5, mouse FcγRIII extracellular domain, …
Test: SPR (Biacore T200); KD of H237-mIgG1/MRAL-k0 / KD of variant

Row | relative mFcγRIII-binding activity (mIgG1 = 1) [fold] | Binder
13 | 0.15 | B7
14 | 0.32 | B8
15 | 0.4 | B9
16 | 1.83 | B10
17 | 0.18 | B11
18 | 0.12 | B12
19 | 0.07 | B13
20 | 0.3 | B14
21 | 1.75 | B15
22 | 0.06 | B16
23 | 4.4 | B17
24 | 0.13 | B18
25 | 0.16 | B19
26 | 1.02 | B20
27 | 1.68 | B21
28 | 0.23 | B22
29 | 0.09 | B23
30 | 0.57 | B24
31 | 0.14 | B25
32 | 0.06 | B26
33 | 0.16 | B27
34 | 0.84 | B28
35 | 0.9 | B29
36 | 2.14 | B30
37 | 0.05 | B31
38 | 0.13 | B32
39 | 2.01 | B33

target: T6, mouse FcγRII extracellular domain, …; test: as above

Row | relative mFcγRII-binding activity (mIgG1 = 1) [fold] | Binder
40 | 0.84 | B7
41 | 2.66 | B8
42 | 3.83 | B9
43 | 13.9 | B10
44 | 3.14 | B11
45 | 0.22 | B12
46 | 0.23 | B13
47 | 0.81 | B14
48 | 8.97 | B15
49 | 0.12 | B16
50 | 9.85 | B17
51 | 0.42 | B18
52 | 0.34 | B19
53 | 5.37 | B20
54 | 7.57 | B21
55 | 3.15 | B22
56 | 1.11 | B23
57 | 4.06 | B24
58 | 0.59 | B25
59 | 0.24 | B26
60 | 0.62 | B27
61 | 10.9 | B28
62 | 7.7 | B29
63 | 14 | B30
64 | 0.26 | B31
65 | 1.63 | B32
66 | 8.03 | B33
